T1: human FcγRIIb extracellular domain with C-terminal His tag (human, UniProt P31994 43-217)
T1 sequence (looked up): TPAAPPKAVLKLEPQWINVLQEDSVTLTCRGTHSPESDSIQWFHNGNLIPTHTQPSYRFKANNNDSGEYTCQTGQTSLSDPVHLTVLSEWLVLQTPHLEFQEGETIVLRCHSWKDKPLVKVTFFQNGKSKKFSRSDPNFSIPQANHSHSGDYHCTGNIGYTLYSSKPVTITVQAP

T2: human FcγRIIa type R (Arg131) extracellular domain with C-terminal His tag (human, UniProt P12318 34-217)
T2 sequence (looked up): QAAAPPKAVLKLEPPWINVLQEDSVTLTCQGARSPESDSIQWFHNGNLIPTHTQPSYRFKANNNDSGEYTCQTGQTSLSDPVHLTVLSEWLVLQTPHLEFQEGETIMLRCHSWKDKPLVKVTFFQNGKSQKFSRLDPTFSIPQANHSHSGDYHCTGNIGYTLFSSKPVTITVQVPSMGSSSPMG


Columns and labels:
Assay in all cases: SPR
[1] = target: T1, human FcγRIIb extracellular domain with …
[2] = target: T2, human FcγRIIa type R (Arg131) …
[3] = target: human FcγRIIIa type V (Val158) extracellular domain with C-terminal His tag (human, UniProt P08637 17-208)
human FcγRIIIa type V (Val158) extracellular domain with C-terminal His tag, sequence (P08637 17-208 F176V): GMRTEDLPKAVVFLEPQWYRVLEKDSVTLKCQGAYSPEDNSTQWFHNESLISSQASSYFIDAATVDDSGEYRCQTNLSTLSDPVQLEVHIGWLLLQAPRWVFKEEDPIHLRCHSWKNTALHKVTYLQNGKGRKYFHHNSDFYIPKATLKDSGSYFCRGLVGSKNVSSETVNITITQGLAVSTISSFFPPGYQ

Row | Binder | KD (IIb) of parent polypeptide/KD (IIb) of altered polypeptide [1] | KD (IIaR) of parent polypeptide/KD (IIaR) of altered polypeptide [2] | Kd [3] [µM]
1 | IL6R-BP502/IL6R-L (antibody, human IgG1, kappa) heavy: QVQLQESGPGLVKPSETLSLTCAVSGHSISHDHAWSWVRQPPGEGLEWIGFISYSGITNYNPSLQGRVTISRDNSKNTLYLQMNSLRAEDTAVYYCARSLARTTAMDYWGEGTLVTVSSASTKGPSVFPLAPSSKSTSGGTAALGCLVKDYFPEPVTVSWNSGALTSGVHTFPAVLQSSGLYSLSSVVTVPSSSLGTQTYICNVNHKPSNTKVDKKVEPKSCDKTHTCPPCPAPDLLGDDSVFLFPPKPKDTLMISRTPEVTCVVIDVAEEDGEVKFNWYVDGVEVHNAKTKPREEQDNSTYRVVSVLTVLHQDWLNGKEYKCKVSNKGLPRPIEKTISKAKGQPREPQVYTLPPSRDELTKNQVSLTCLVKGFYPSDIAVEWESNGQPENNYKTTPPVLDSDGSFFLYSKLTVDKSRWQQGNVFSCSVMHEALHNHYTQESLSLSP light: not shown | 840 | 10.1 | –
2 | IL6R-BP536/IL6R-L (antibody, human IgG1, kappa) heavy: QVQLQESGPGLVKPSETLSLTCAVSGHSISHDHAWSWVRQPPGEGLEWIGFISYSGITNYNPSLQGRVTISRDNSKNTLYLQMNSLRAEDTAVYYCARSLARTTAMDYWGEGTLVTVSSASTKGPSVFPLAPSSKSTSGGTAALGCLVKDYFPEPVTVSWNSGALTSGVHTFPAVLQSSGLYSLSSVVTVPSSSLGTQTYICNVNHKPSNTKVDKKVEPKSCDKTHTCPPCPAPDLLGDDSVFLFPPKPKDTLMISRTPEVTCVVIDVSEEDGEVKFNWYVDGVEVHNAKTKPREEQDNSTYRVVSVLTVLHQDWLNGKEYKCKVSNKGLPRPIEKTISKAKGQPREPQVYTLPPSRDELTKNQVSLTCLVKGFYPSDIAVEWESNGQPENNYKTTPMVLDSDGSFFLYSKLTVDKSRWQQGNVFSCSVMHEALHNHYTQESLSLSP light: not shown | 1040 | 13.9 | 23
3 | IL6R-BP508/IL6R-L (antibody, human IgG1, kappa) heavy: QVQLQESGPGLVKPSETLSLTCAVSGHSISHDHAWSWVRQPPGEGLEWIGFISYSGITNYNPSLQGRVTISRDNSKNTLYLQMNSLRAEDTAVYYCARSLARTTAMDYWGEGTLVTVSSASTKGPSVFPLAPSSKSTSGGTAALGCLVKDYFPEPVTVSWNSGALTSGVHTFPAVLQSSGLYSLSSVVTVPSSSLGTQTYICNVNHKPSNTKVDKKVEPKSCDKTHTCPPCPAPDLLGDDSVFLFPPKPKDTLMISRTPEVTCVVIDVAEEDGPVKFNWYVDGVEVHNAKTKPREEQDNSTYRVVSVLTVLHQDWLNGKEYKCKVSNKALPAPIEKTISKAKGQPREPQVYTLPPSRDELTKNQVSLTCLVKGFYPSDIAVEWESNGQPENNYKTTPPVLDSDGSFFLYSKLTVDKSRWQQGNVFSCSVMHEALHNHYTQESLSLSP light: not shown | 149 | 2 | –
4 | IL6R-BP505/IL6R-L (antibody, human IgG1, kappa) heavy: QVQLQESGPGLVKPSETLSLTCAVSGHSISHDHAWSWVRQPPGEGLEWIGFISYSGITNYNPSLQGRVTISRDNSKNTLYLQMNSLRAEDTAVYYCARSLARTTAMDYWGEGTLVTVSSASTKGPSVFPLAPSSKSTSGGTAALGCLVKDYFPEPVTVSWNSGALTSGVHTFPAVLQSSGLYSLSSVVTVPSSSLGTQTYICNVNHKPSNTKVDKKVEPKSCDKTHTCPPCPAPDLLGDDSVFLFPPKPKDTLMISRTPEVTCVVIDVAEEDGDVKFNWYVDGVEVHNAKTKPREEQYNSTYRVVSVLTVLHQDWLNGKEYKCKVSNKALPAPIEKTISKAKGQPREPQVYTLPPSRDELTKNQVSLTCLVKGFYPSDIAVEWESNGQPENNYKTTPPVLDSDGSFFLYSKLTVDKSRWQQGNVFSCSVMHEALHNHYTQESLSLSP light: not shown | 145 | 2.6 | –
5 | IL6R-BP509/IL6R-L (antibody, human IgG1, kappa) heavy: QVQLQESGPGLVKPSETLSLTCAVSGHSISHDHAWSWVRQPPGEGLEWIGFISYSGITNYNPSLQGRVTISRDNSKNTLYLQMNSLRAEDTAVYYCARSLARTTAMDYWGEGTLVTVSSASTKGPSVFPLAPSSKSTSGGTAALGCLVKDYFPEPVTVSWNSGALTSGVHTFPAVLQSSGLYSLSSVVTVPSSSLGTQTYICNVNHKPSNTKVDKKVEPKSCDKTHTCPPCPAPDLLGDDSVFLFPPKPKDTLMISRTPEVTCVVIDVAEEDGDVKFNWYVDGVEVHNAKTKPREEQDNSTYRVVSVLTVLHQDWLNGKEYKCKVSNKALPAPIEKTISKAKGQPREPQVYTLPPSRDELTKNQVSLTCLVKGFYPSDIAVEWESNGQPENNYKTTPPVLDSDGSFFLYSKLTVDKSRWQQGNVFSCSVMHEALHNHYTQESLSLSP light: not shown | 174 | 2.1 | –
6 | IL6R-BP504/IL6R-L (antibody, human IgG1, kappa) heavy: QVQLQESGPGLVKPSETLSLTCAVSGHSISHDHAWSWVRQPPGEGLEWIGFISYSGITNYNPSLQGRVTISRDNSKNTLYLQMNSLRAEDTAVYYCARSLARTTAMDYWGEGTLVTVSSASTKGPSVFPLAPSSKSTSGGTAALGCLVKDYFPEPVTVSWNSGALTSGVHTFPAVLQSSGLYSLSSVVTVPSSSLGTQTYICNVNHKPSNTKVDKKVEPKSCDKTHTCPPCPAPDLLGDDSVFLFPPKPKDTLMISRTPEVTCVVIDVAEEDGPVKFNWYVDGVEVHNAKTKPREEQYNSTYRVVSVLTVLHQDWLNGKEYKCKVSNKALPAPIEKTISKAKGQPREPQVYTLPPSRDELTKNQVSLTCLVKGFYPSDIAVEWESNGQPENNYKTTPPVLDSDGSFFLYSKLTVDKSRWQQGNVFSCSVMHEALHNHYTQESLSLSP light: not shown | 128 | 2.4 | –
7 | IL6R-BP503/IL6R-L (antibody, human IgG1, kappa) heavy: QVQLQESGPGLVKPSETLSLTCAVSGHSISHDHAWSWVRQPPGEGLEWIGFISYSGITNYNPSLQGRVTISRDNSKNTLYLQMNSLRAEDTAVYYCARSLARTTAMDYWGEGTLVTVSSASTKGPSVFPLAPSSKSTSGGTAALGCLVKDYFPEPVTVSWNSGALTSGVHTFPAVLQSSGLYSLSSVVTVPSSSLGTQTYICNVNHKPSNTKVDKKVEPKSCDKTHTCPPCPAPDLLGDDSVFLFPPKPKDTLMISRTPEVTCVVIDVAEEDGEVKFNWYVDGVEVHNAKTKPREEQDNSTYRVVSVLTVLHQDWLNGKEYKCKVSNKGLPRPIEKTISKAKGQPREPQVYTLPPSRDELTKNQVSLTCLVKGFYPSDIAVEWESNGQPENNYKTTPMVLDSDGSFFLYSKLTVDKSRWQQGNVFSCSVMHEALHNHYTQESLSLSP light: not shown | 1810 | 19.4 | –
8 | IL6R-BP556/IL6R-L (antibody, human IgG1, kappa) heavy: QVQLQESGPGLVKPSETLSLTCAVSGHSISHDHAWSWVRQPPGEGLEWIGFISYSGITNYNPSLQGRVTISRDNSKNTLYLQMNSLRAEDTAVYYCARSLARTTAMDYWGEGTLVTVSSASTKGPSVFPLAPSSKSTSGGTAALGCLVKDYFPEPVTVSWNSGALTSGVHTFPAVLQSSGLYSLSSVVTVPSSSLGTQTYICNVNHKPSNTKVDKKVEPKSCDKTHTCPPCPAPELLGDDSVFLFPPKPKDTLMISRTPEVTCVVIDVGEEDGEVKFNWYVDGVEVHNAKTKPREEQDNSTYRVVSVLTVLHQDWLNGKEYKCKVSNKALPRPIEKTISKAKGQPREPQVYTLPPSRDELTKNQVSLTCLVKGFYPSDIAVEWESNGQPENNYKTTPPVLDSDGSFFLYSKLTVDKSRWQQGNVFSCSVMHEALHNHYTQESLSLSP light: not shown | – | – | 60
9 | IL6R-BP561/IL6R-L (antibody, human IgG1, kappa) heavy: QVQLQESGPGLVKPSETLSLTCAVSGHSISHDHAWSWVRQPPGEGLEWIGFISYSGITNYNPSLQGRVTISRDNSKNTLYLQMNSLRAEDTAVYYCARSLARTTAMDYWGEGTLVTVSSASTKGPSVFPLAPSSKSTSGGTAALGCLVKDYFPEPVTVSWNSGALTSGVHTFPAVLQSSGLYSLSSVVTVPSSSLGTQTYICNVNHKPSNTKVDKKVEPKSCDKTHTCPPCPAPDLLGDDSVFLFPPKPKDTLMISRTPEVTCVVVDVSDEDGDVKFNWYVDGVEVHNAKTKPREEQDNSTYRVVSVLTVLHQDWLNGKEYKCKVSNKALPRPIEKTISKAKGQPREPQVYTLPPSRDELTKNQVSLTCLVKGFYPSDIAVEWESNGQPENNYKTTPPVLDSDGSFFLYSKLTVDKSRWQQGNVFSCSVMHEALHNHYTQESLSLSP light: not shown | – | – | 37
10 | IL6R-BP511/IL6R-L (antibody, human IgG1, kappa) heavy: QVQLQESGPGLVKPSETLSLTCAVSGHSISHDHAWSWVRQPPGEGLEWIGFISYSGITNYNPSLQGRVTISRDNSKNTLYLQMNSLRAEDTAVYYCARSLARTTAMDYWGEGTLVTVSSASTKGPSVFPLAPSSKSTSGGTAALGCLVKDYFPEPVTVSWNSGALTSGVHTFPAVLQSSGLYSLSSVVTVPSSSLGTQTYICNVNHKPSNTKVDKKVEPKSCDKTHTCPPCPAPELLGDDSVFLFPPKPKDTLMISRTPEVTCVVIDVAEEDGPVKFNWYVDGVEVHNAKTKPREEQDNSTYRVVSVLTVLHQDWLNGKEYKCKVSNKALPRPIEKTISKAKGQPREPQVYTLPPSRDELTKNQVSLTCLVKGFYPSDIAVEWESNGQPENNYKTTPPVLDSDGSFFLYSKLTVDKSRWQQGNVFSCSVMHEALHNHYTQESLSLSP light: not shown | 891 | 6.3 | –
11 | IL6R-BP538/IL6R-L (antibody, human IgG1, kappa) heavy: QVQLQESGPGLVKPSETLSLTCAVSGHSISHDHAWSWVRQPPGEGLEWIGFISYSGITNYNPSLQGRVTISRDNSKNTLYLQMNSLRAEDTAVYYCARSLARTTAMDYWGEGTLVTVSSASTKGPSVFPLAPSSKSTSGGTAALGCLVKDYFPEPVTVSWNSGALTSGVHTFPAVLQSSGLYSLSSVVTVPSSSLGTQTYICNVNHKPSNTKVDKKVEPKSCDKTHTCPPCPAPELLGDDSVFLFPPKPKDTLMISRTPEVTCVVIDVSEEDGEVKFNWYVDGVEVHNAKTKPREEQYNSTYRVVSVLTVLHQDWLNGKEYKCKVSNKALPRPIEKTISKAKGQPREPQVYTLPPSRDELTKNQVSLTCLVKGFYPSDIAVEWESNGQPENNYKTTPPVLDSDGSFFLYSKLTVDKSRWQQGNVFSCSVMHEALHNHYTQESLSLSP light: not shown | 587 | 5.4 | 33

Reference: patent publication US20260217793A1 (Chugai, published 2026)
